Data reported in patent US20240327538A1 (AMUNIX PHARMACEUTICALS, published 2024).
Each block holds one binder with its values, some of them ahead of it.

Columns and labels:
[1] = biological target: T1, hPSMA antigen (with an added HHHHHH sequence) (human, UniProt Q04609 44-750); assay: in vitro screening of VHH from immunized llamas
T1 construct: also called human PSMA (hPSMA)

human PSMA [2] = biological target: T2, human PSMA (human, UniProt Q04609 44-750, limits assumed); assay: Octet
T2 construct: also called huPSMA

cynomolgus monkey PSMA = biological target: T3, cynomolgus monkey PSMA (cynomolgus monkey, UniProt A0A2K5VNZ0 44-750); assay: Octet
T3 construct: also called cyPSMA; Cyno PSMA

human CD3 epsilon = biological target: T4, human CD3 epsilon (human, UniProt P07766 23-126, limits assumed); assay: Octet
T4 construct: also called huCD3e

[3] = biological target: T5, cynomolgus monkey CD3 epsilon (cynomolgus monkey, UniProt Q95LI5 22-117, limits assumed); assay: Octet
T5 construct: also called cyCD3e
T5 sequence (looked up): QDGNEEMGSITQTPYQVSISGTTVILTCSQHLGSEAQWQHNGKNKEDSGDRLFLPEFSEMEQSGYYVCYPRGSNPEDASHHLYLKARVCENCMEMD

human PSMA-Fc [4] = biological target: T6, human PSMA-Fc (human, UniProt Q04609 44-750, limits assumed); assay: Octet
T6 construct: also called Human PSMA-Fc fusions; not shown: Fc part

human PSMA-Fc [5] = biological target: T6, human PSMA-Fc; assay: linker length / domain swap comparison
human PSMA [6] = biological target: T2, human PSMA; assay: BLI or SPR
Source text: The values are reported below in Table 19 for PSMA and Table 20 for CD3.

Human CD3 = biological target: T7, Human CD3 (human, UniProt P07766 23-126); assay: BLI or SPR
T7 construct: not shown: A CD3 delta partner cannot be excluded

Cyno CD3 = biological target: T8, Cyno CD3 (cynomolgus monkey, UniProt Q95LI5 22-117); assay: BLI or SPR
T8 construct: also called cynomolgus monkey CD3; not shown: A CD3 delta partner cannot be excluded
T8 sequence: T5 sequence (looked up)

human PSMA-Fc [7] = biological target: T6, human PSMA-Fc; assay: Octet, human PSMA-Fc
Experimental: Binding affinity of select PSMA PTE variants was tested by Octet.

T6 sequence (Q04609 44-750 limits assumed): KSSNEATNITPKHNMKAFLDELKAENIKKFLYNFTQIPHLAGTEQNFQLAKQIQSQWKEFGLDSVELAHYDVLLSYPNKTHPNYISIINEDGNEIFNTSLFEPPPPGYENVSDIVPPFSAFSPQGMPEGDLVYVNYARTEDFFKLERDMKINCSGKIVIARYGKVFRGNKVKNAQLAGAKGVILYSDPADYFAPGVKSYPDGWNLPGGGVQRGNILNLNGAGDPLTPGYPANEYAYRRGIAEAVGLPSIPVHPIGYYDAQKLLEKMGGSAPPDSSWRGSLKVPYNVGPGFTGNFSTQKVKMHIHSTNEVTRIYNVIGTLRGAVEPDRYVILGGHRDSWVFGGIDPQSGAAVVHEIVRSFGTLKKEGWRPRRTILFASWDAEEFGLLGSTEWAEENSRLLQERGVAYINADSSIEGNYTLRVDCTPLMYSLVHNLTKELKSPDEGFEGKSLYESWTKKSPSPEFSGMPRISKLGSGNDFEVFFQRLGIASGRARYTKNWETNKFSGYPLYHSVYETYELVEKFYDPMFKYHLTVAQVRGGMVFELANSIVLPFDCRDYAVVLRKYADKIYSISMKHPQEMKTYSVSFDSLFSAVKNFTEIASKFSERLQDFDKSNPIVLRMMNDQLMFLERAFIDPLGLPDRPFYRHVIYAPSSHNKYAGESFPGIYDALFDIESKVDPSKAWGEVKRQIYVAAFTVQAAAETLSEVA
T1 sequence (Q04609 other isoform, or with tags, fused parts or gaps limits assumed): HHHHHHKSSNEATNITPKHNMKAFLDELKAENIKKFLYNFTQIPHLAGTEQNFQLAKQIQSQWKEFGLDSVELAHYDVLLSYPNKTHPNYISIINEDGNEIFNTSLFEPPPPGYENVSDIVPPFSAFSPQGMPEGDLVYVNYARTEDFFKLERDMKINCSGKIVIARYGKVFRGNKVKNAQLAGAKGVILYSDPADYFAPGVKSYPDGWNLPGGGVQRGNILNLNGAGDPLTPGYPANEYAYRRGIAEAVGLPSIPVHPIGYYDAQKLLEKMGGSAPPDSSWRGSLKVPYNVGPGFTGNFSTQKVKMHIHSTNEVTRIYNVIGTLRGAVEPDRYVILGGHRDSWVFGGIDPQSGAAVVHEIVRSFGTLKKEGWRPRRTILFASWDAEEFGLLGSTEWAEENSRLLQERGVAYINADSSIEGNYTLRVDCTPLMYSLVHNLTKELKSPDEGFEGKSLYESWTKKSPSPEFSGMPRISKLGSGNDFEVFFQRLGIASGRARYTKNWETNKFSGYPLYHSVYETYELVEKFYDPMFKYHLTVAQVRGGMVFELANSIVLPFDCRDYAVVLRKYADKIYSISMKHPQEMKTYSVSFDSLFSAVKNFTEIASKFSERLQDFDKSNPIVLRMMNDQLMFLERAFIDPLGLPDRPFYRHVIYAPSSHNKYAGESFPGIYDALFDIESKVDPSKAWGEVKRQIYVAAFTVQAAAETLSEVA
T2 sequence (Q04609 44-750 limits assumed): as the sequence (Q04609 44-750 limits assumed) above
T7 sequence (P07766 23-126 limits assumed): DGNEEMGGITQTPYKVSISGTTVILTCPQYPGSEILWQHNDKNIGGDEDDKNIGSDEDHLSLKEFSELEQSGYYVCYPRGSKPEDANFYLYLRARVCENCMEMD
T4 sequence (P07766 23-126 limits assumed): as above

B1: P01C01R3 (VHH)
VHH: QVQLVESGGGLVQAGGSLRLSCAASGRTVNSYAMGWFRQAPGKEREFVASQSWMGAITYDADYADSVKGRFTISRDNAKNTLYLQMNSLKPEDTAVYRCAASRQARPGLHVREYDVWGQGTQVTVSS
binding result [1]: binds

B2: CB01H01R3 (VHH)
VHH: EVQLVESGGGSVQAGGSLSLSCVASGRTFGIYVMGWFRQAPGKEREFVAAISWSGSNRLVSDSVKGRFTISRENAKNTIYLQMNGLKPEDTANYFCAASNRLYGRTWYDFNESDYWGQGTQVTVSS
notes: also called PSMA.2
binding result [1]: binds

B3: uTCE from AC3445 (bispecific antibody)
chain: LTGPGTSESATPESQVQLVESGGGVVQPGRSLRLSCAASGRTFGIYVMGWVRQAPGKEREFVAAISWSGSNRKVSDSVKGRFTISRDNSKNTLYLQMNSLRAEDTAVYYCAASNRLYGRTWYDFNESDYWGQGTQVTVSSGGGGSGGGSELVVTQEPSLTVSPGGTVTLTCRSSNGAVTSSNYANWVQQKPGQAPRGLIGGTNKRAPGTPARFSGSLLGGKAALTLSGVQPEDEAVYYCALWYPNLWVFGGGTKLTVLSESATPESGPGTSPGATPESGPGTSESATPEVQLLESGGGIVQPGGSLKLSCAASGFTFNTYAMNWVRQAPGKGLEWVARIRSKYNNYATYYADSVKDRFTISRDDSKNTVYLQMNNLKTEDTAVYYCVRHENFGNSYVSWFAHWGQGTLVTVSSGTATPESGPGEAGRSANHTPAG
notes: unmasked TCE released from this paTCE; also called PSMA.119-CD3.23 uTCE
Kd (human PSMA [2]): 6.2 nM | Kd (cynomolgus monkey PSMA): 47.5 nM | Kd (human CD3 epsilon): 34.8 nM | Kd [3]: 40 nM

B5: P01G03R3 (VHH)
VHH: EVQLVESGGGLVQAGGSLRLSCVVSGIAFSPYHMAWYRQAPGKQHEWVAVITTGGTTAYNETVEGRFSISRDNARSTVYLQMNSLKPEDTAVYYCNIYGLSLKWGQGTQVTVSS
binding result [1]: binds

B6: CB01B02R3 (VHH)
VHH: QVQLVESGGGLVQAGDSLRLSCVTSGRTFDVYAMGWFRQAPGKERELVAAINWSGSNKFHADSVKGRFTISRDNAWKTLSLQMNSLKPEDTAVYFCAASTRLYGTTWYEFNDSDYWGQGTQVTVSS
notes: also called PSMA.3
binding result [1]: binds

B7: P01E02R3 (VHH)
VHH: EVQLVESGGGLVQAGGSLKLSCVANGPTFSTYAMAWFRQAPGKEHEFVAAITGDGDTTNNADSVKGRFTISRDNAKNRVYLQLNSLKPEDTAAYYCAAGVHHTYTIPRLWLYWGQGTQVTVSS
binding result [1]: binds

B9: AMX-500(1x-C) (bispecific antibody)
chain: ASSATPESGPGTSTEPSEGSAPGTSESATPESGPGSGPGTSESATPGTSESATPESGPGSEPATSGSETPGTSESATPESGPGTSTEPSEGSAPGSPAGSPTSTEEGTSESATPESGPGSEPATSGSETPGTSESATPESGPGSPAGSPTSTEEGSPAGSPTSTEEGTSTEPSEGSAPGTSESATPESGPGTSESATPESGPGTSESATPESGPGSEPATSGSETPGSEPATSGSETPGSPAGSPTSTEEGTSTEPSEGSAPGTSTEPSEGSAPGSEPATSGSETPGTSESATPEAGRSASHTPAGLTGPGTSESATPESQVQLVESGGGVVQPGRSLRLSCAASGRTFGIYVWGWFRQAPGKEREFVGAMSWSGSNRKVSDSVKGRFTISRDNSKNTLYLQMNSLRAEDTAVYYCAASNKEYGRTWYDFNESDYWGQGTQVTVSSGGGGSGGGSELVVTQEPSLTVSPGGTVTLTCRSSNGAVTSSNYANWVQQKPGQAPRGLIGGTNKRAPGTPARFSGSLLGGKAALTLSGVQPEDEAVYYCALWYPNLWVFGGGTKLTVLSESATPESGPGTSPGATPESGPGTSESATPEVQLVESGGGIVQPGGSLRLSCAASGFTFSTYAMNWVRQAPGKGLEWVGRIRTKRNNYATYYADSVKGRFTISRDDSKNTVYLQMNSLKTEDTAVYYCVRHENFGNSYVSWFAHWGQGTLVTVSSGTATPESGPGEAGRSASHTPAGLTGPATPESGPGTSESATPESGPGSPAGSPTSTEEGTSESATPESGPGSEPATSGSETPGTSESATPESGPGTSTEPSEGSAPGTSTEPSEGSAPGTSTEPSEGSAPGTSTEPSEGSAPGTSTEPSEGSAPGTSTEPSEGSAPGSPAGSPTSTEEGTSTEPSEGSAPGTSESATPESGPGSEPATSGSETPGTSESATPESGPGSEPATSGSETPGTSESATPESGPGTSTEPSEGSAPGTSESATPESGPGSPAGSPTSTEEGSPAGSPTSTEEGSPAGSPTSTEEGTSESATPESGPGTSTEPSEGSAPGTSESATPESGPGSEPATSGSETPGTSESATPESGPGSEPATSGSETPGTSESATPESGPGTSTEPSEGSAPGSPAGSPTSTEEGTSESATPESGPGSEPATSGSETPGTSESATPESGPGSPAGSPTSTEEGSPAGSPTSTEEGTSTEPSEGSAPGTSESATPESGPGTSESATPESGPGTSPSATPESGPGSEPATSGSETPGSEPATSGSETPGSPAGSPTSTEEGTSTEPSEGSAPGTSTEPSEGSAPGSEPATSGSETPGTSESAGEPEA
Kd (human PSMA [6]): 353 nM | Kd (Human CD3): 34.4 nM | Kd (Cyno CD3): 26.7 nM

B12: CB01A01R3 (VHH)
VHH: EVQLVESGGGLVQAGGSLRISCTASERSVSTYTKGWFRQAPGKERHLVAAISYNGDTTYYSDSVKGRFTISRDNVKNTVNLQMNSLKPEDTAVYFCAARGSSWLYGTWDDYHYWGQGTQVTVSS
binding result [1]: binds

The next lines start with the values.

Kd (human PSMA-Fc [4]): 2.4 nM | Kd (human PSMA-Fc [5]): 2.4 nM | koff (human PSMA-Fc [5]): 0.00018 s⁻¹ | kon (human PSMA-Fc [5]): 76000 M⁻¹ s⁻¹
B4: uTCE of AC3356 (bispecific antibody)
chain: LTGPATSGSETPGTQVQLVESGGGVVQPGRSLRLSCAASGRTFGIYVMGWVRQAPGKEREFVAAISWSGSNRLVSDSVKGRFTISRDNSKNTLYLQMNSLRAEDTAVYYCAASNRLYGRTWYDFNESDYWGQGTQVTVSSGGGGSGGGSEVQLLESGGGIVQPGGSLKLSCAASGFTFNTYAMNWVRQAPGKGLEWVARIRSKYNNYATYYADSVKDRFTISRDDSKNTVYLQMNNLKTEDTAVYYCVRHENFGNSYVSWFAHWGQGTLVTVSSGATPPETGAETESPGETTGGSAESEPPGEGELVVTQEPSLTVSPGGTVTLTCRSSNGAVTSSNYANWVQQKPGQAPRGLIGGTNKRAPGTPARFSGSLLGGKAALTLSGVQPEDEAVYYCALWYPNLWVFGGGTKLTVLGTAEAASASGEAGRSANHTPAG
notes: unmasked TCE of this paTCE; CD3.23 in VH-VL order; also called PSMA.5 (domain swap)

Kd (human PSMA-Fc [4]): 2.1 nM | Kd (human PSMA-Fc [5]): 2.1 nM | koff (human PSMA-Fc [5]): 0.00022 s⁻¹ | kon (human PSMA-Fc [5]): 110000 M⁻¹ s⁻¹
B8: uTCE of AC3353 (bispecific antibody)
chain: LTGPATSGSETPGTQVQLVESGGGVVQPGRSLRLSCAASGRTFGIYVMGWVRQAPGKEREFVAAISWSGSNRLVSDSVKGRFTISRDNSKNTLYLQMNSLRAEDTAVYYCAASNRLYGRTWYDFNESDYWGQGTQVTVSSGGGGSELVVTQEPSLTVSPGGTVTLTCRSSNGAVTSSNYANWVQQKPGQAPRGLIGGTNKRAPGTPARFSGSLLGGKAALTLSGVQPEDEAVYYCALWYPNLWVFGGGTKLTVLGATPPETGAETESPGETTGGSAESEPPGEGEVQLLESGGGIVQPGGSLKLSCAASGFTFNTYAMNWVRQAPGKGLEWVARIRSKYNNYATYYADSVKDRFTISRDDSKNTVYLQMNNLKTEDTAVYYCVRHENFGNSYVSWFAHWGQGTLVTVSSGTAEAASASGEAGRSANHTPAG
notes: unmasked TCE of this paTCE; 5-residue VHH-scFv linker; also called PSMA.5 (5 mer)

Kd (human PSMA-Fc [4]): 5.6 nM | Kd (human PSMA-Fc [7]): 5.6 nM | koff (human PSMA-Fc [7]): 0.000479 s⁻¹ | kon (human PSMA-Fc [7]): 86600 M⁻¹ s⁻¹
B10: uTCE of AC3342 (bispecific antibody, V domains shown)
VH: QVQLVESGGGVVQPGRSLRLSCAASGRTFGIYVMGWVRQAPGKEREFVAAISWSGSNRLVSDSVKGRFTISRDNSKNTLYLQMNSLRAEDTAVYYCAASNKLYGRTWYDFNESDYWGQGTQVTVSS
notes: VHH in uTCE with CD3.23 scFv (VL-VH), 9-residue linker; also called PSMA.132; R101K

Kd (human PSMA-Fc [4]): 3.5 nM | Kd (human PSMA-Fc [5]): 3.5 nM | koff (human PSMA-Fc [5]): 0.00027 s⁻¹ | kon (human PSMA-Fc [5]): 77000 M⁻¹ s⁻¹
B11: uTCE of AC3354 (bispecific antibody)
chain: LTGPATSGSETPGTQVQLVESGGGVVQPGRSLRLSCAASGRTFGIYVMGWVRQAPGKEREFVAAISWSGSNRLVSDSVKGRFTISRDNSKNTLYLQMNSLRAEDTAVYYCAASNRLYGRTWYDFNESDYWGQGTQVTVSSGATPPETGAETESPGELVVTQEPSLTVSPGGTVTLTCRSSNGAVTSSNYANWVQQKPGQAPRGLIGGTNKRAPGTPARFSGSLLGGKAALTLSGVQPEDEAVYYCALWYPNLWVFGGGTKLTVLGATPPETGAETESPGETTGGSAESEPPGEGEVQLLESGGGIVQPGGSLKLSCAASGFTFNTYAMNWVRQAPGKGLEWVARIRSKYNNYATYYADSVKDRFTISRDDSKNTVYLQMNNLKTEDTAVYYCVRHENFGNSYVSWFAHWGQGTLVTVSSGTAEAASASGEAGRSANHTPAG
notes: unmasked TCE of this paTCE; 15-residue VHH-scFv linker; also called PSMA.5 (15 mer)
